In patent WO2020219978A1:

Key:
[1] = target: BCMA on the BCMA+ cell lines (NCI-H929, L363, JJN-3, RPMI-8226, HEK293T-huBCMA, HEK293T-cynoBCMA); assay: flow cytometry on BCMA+ cell lines
[2] = target: cynomolgus BCMA (cyno-BCMA), as used in SPR (cynomolgus monkey); assay: SPR
Chain of cynomolgus BCMA (cyno-BCMA), as used in SPR (cynomolgus monkey) (chain, as listed by the source): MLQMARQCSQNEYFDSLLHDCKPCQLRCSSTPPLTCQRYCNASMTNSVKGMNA

For “CC-93269, bispecific trivalent anti-BCMA/anti-CD3 T cell engaging antibody (TCE) (bispecific antibody)”, the EC50 [1] was 3.4 to 15.2 nM and the fold higher affinity than to rodent BCMA [2] was 10 fold.
